Blank lines part the entries; values can stand above or below the molecule they belong to.
Legend:
HT29 cells [1] = assay: Cell viability, CCK-8 assay, HT29; type: cell-based, human; conditions: HT29, 250 nM (DOX 3.5 μg/ml), 24 hours
Protocol: (§1) HepG2, HT29, or MCF7 cells (1.5×10^4) were cultured in a 96-well plate for 1 day, after which DOX-TTPNs, DOX-FTNs, free DOX, empty TTPNs, or buffer was added to each well. After 24 hours, cell viability was measured using a CCK-8 assay (Dojindo Molecular Technologies) according to the manufacturer's instructions. For analysis of early apoptosis, HT29 cells in 6-18 well culture plate were treated with DOX-TTPNs, free DOX, empty TTPNs, or buffer for 24 hours. Thereafter, cells were incubated with Alexa Fluor 488-conjugated annexin V (Invitrogen) 20 for 15 minutes, then analyzed using an Accuri™ C6 flow cytometer (BD Biosciences) and FlowJo 21 v10 software.

HT29 cells [2] = assay: Annexin V early apoptosis flow cytometry, HT29; type: cell-based, human; conditions: HT29, low concentrations, 24 hours
Protocol: as §1

[3] = tested on: cleaved form of caspase-3; assay: Western blot of HT29 lysates: cleaved caspase-3; type: cell-based, human; conditions: HT29, 50 nM, 24 hours
Protocol: (§2) After incubating HT29 cells with 50 nM DOX-TTPNs, DOX-FTNs, free DOX, or buffer for 24 hours, cells were lysed with radioimmunoprecipitation assay (RIPA) buffer (Cell Signaling Technology) and the concentration of proteins was measured using a DC protein assay kit (Bio-Rad). Equal amounts of proteins (30 μg) were resolved by SDS-PAGE and transferred to nitrocellulose membranes. After blocking with 5% skim milk in Tris-buffered saline containing 0.1% Tween-20 (TBST), membranes were incubated first with anti-Cl-PARP, anti-Cl-caspase-6, anti-cFLIP, anti-Bcl-xL, anti-XIAP, anti-Cl-caspase-3, or anti-GAPDH primary antibody (Cell Signaling Technology), and then with anti-mouse or anti-rabbit secondary antibodies (Sigma-Aldrich), as appropriate. Immunoreactive proteins were visualized using enhanced chemiluminescence (ECL) chemical reagents (Bio-Rad) and ChemiDoc (Bio-Rad), and were analyzed using ImageJ software.

PARP = assay: Western blot of HT29 lysates: PARP; type: cell-based, human; conditions: HT29, 24 hours
Protocol: as §2

XIAP = assay: Western blot of HT29 lysates: XIAP; type: cell-based, human; conditions: HT29, 24 hours
Protocol: as §2

DR5 [4] = assay: Western blot time course of DR5 levels in HT29; type: cell-based, human; conditions: HT29, 4, 12 and 24 hours
HT29 tumor [5] = assay: Antitumor efficacy, HT29 xenograft; type: in vivo, mouse; conditions: i.v. five times every 2 days, DOX-TTPNs 30 mg/kg, DOX 0.4 mg/kg, DOX-FTNs 15 mg/kg, empty TTPNs 30 mg/kg
HT29 tumor [6] = assay: TUNEL analysis of HT29 tumor tissue; type: in vivo, mouse; conditions: HT29 tumor tissue at the end of the study
[7] = mice (Chatterjee et al.); cited from earlier work
[8] = target: TRAIL R1 (death receptor 4, DR4) on the surface of tumor cells (human, UniProt O00220 24-468); assay: cell-based or functional assay
[9] = target: TRAIL R2 (death receptor 5, DR5) on the surface of tumor cells (human, UniProt O14763 56-440); assay: cell-based or functional assay
DR4 = target: T1, DR4 (Homo sapiens, UniProt O00220); assay: SPR binding to immobilized DR4-Fc; conditions: DR4-Fc immobilized, 25° C.
T1 construct: purchased R&D systems 347-DR-100
Protocol: (§3) Binding experiments of TTPN and mTRAIL to TRAIL receptors DR4 and DR5 were analyzed at 25° C. using a surface plasmon resonance apparatus (SR7500 DC, Reichert Inc., NY, USA). DR4 and DR5-fc chimeric proteins (R&D systems 347-DR-100, 631-T2-100) were immobilized on the surface of the Planar Protein A sensor chip (Reichert, 13206069) and the receptors were coated at a level of 300 to 500 resonance units. SPR kinetic titrations were performed by adding 250 μl of TTPN and mTRAIL with different concentrations in the range of 1.56 to 400 nM and 0.1 to 25.6 μM, respectively, increasing by four times. Each analyte was run at 50 μL/min using running and sample buffer (0.5 M Tris-HCl (pH 7.4), 150 mM NaCl, 0.005% Tween 20), and binding of the ligand to the receptor was performed and monitored in real time. For titration sensorgrams, a simple 1:1 Langmuir interaction model (A+B↔AB) was applied using the data analysis program Scrubber 2.0 (BioLogic Software, Australia, and KaleidaGraph Software, Australia) and CLAMP software.
(§4) The affinity KD was determined from the formula of KD=kd/ka. Results are based on representative sensorgrams obtained from saturation binding reactions averaged over at least three independent runs of SPR measurements (FIG. 31).

DR5 [10] = target: T2, DR5 (Homo sapiens, UniProt O14763); assay: SPR binding to immobilized DR5-Fc
T2 construct: purchased R&D systems 631-T2-100
Protocol: as §3, §4

[11] = In vitro stability (soluble protein in buffer over time); type: physicochemical
Protocol: The stability of TTPN, DOX-TTPN and mTRAIL was investigated by measuring changes of concentration in a suitable buffer solution. […] At predetermined times, aggregated proteins were collected at 13,000 rpm for 10 minutes, and the concentration of soluble DOX-TTPN and TTPN in the supernatant was measured using absorbance in UV280.

HepG2 cells [12] = assay: Cell viability, CCK-8 assay, HepG2; type: cell-based, human; conditions: HepG2
Protocol: After culturing for 24 hours, cell viability was measured using a cell counting kit (CCK)-8 assay (Dojindo Molecular Technologies, Gaithersburg, Md.). The plate was then read with an absorbance microplate reader (Spectramax 340, Molecular Devices Corporation) at a wavelength of 450 nm and 50% effective by regression analysis using SigmaPlot software (Systat Software, Inc., San Jose, Calif.). The concentration value was calculated.

HepG2 cells [13] = assay: Annexin V/PI flow cytometry of apoptosis, HepG2; type: cell-based, human; conditions: for surviving tumor cells (Annexin V/PI double negative): 24 hours
Protocol: FIG. 19 is a series of histograms representing flow cytometry analysis of TRAIL-mediated apoptosis of HepG2 cells as an analysis of in vitro TTPN-mediated apoptosis on TRAIL-sensitive-HepG2 cells. Cells were incubated for 24 hours in the presence of different concentrations of mTRAIL and TTPN and analyzed by Annexin V/PI double staining.
In addition, to investigate whether apoptosis induced by TTPN is induced by the pro-apoptosis pathway of tumor cells, fluorescence-activated cell sorting (FACS) using double staining of Annexin V/propidium iodide (PI) was performed. […] (FIG. 21).

HepG2 tumor [14] = assay: Antitumor efficacy, HepG2 xenograft; type: in vivo, mouse; conditions: i.v. every 2 days, TTPN 23 mg/kg, mTRAIL 12 mg/kg
Description: (§5) In the evaluation of the anti-tumor effect of the present invention, BALB/c nude male mice (6-7 weeks old) were used as an animal model. Particularly, HT29 cells (5×10^6) and HepG2 cells (5×10^6) were subcutaneously inoculated into the left dorsal flank of BALB/c nude mice, respectively. After a volume of tumors reached ˜80-100 mm^3, mice were randomly divided into the 14 following five treatment groups (6 mice/group); DOX-TTPNs, DOX-FTNs, free DOX, empty TTPNs, and buffer. Mice were intravenously injected five times, once every 2 days, and volume of tumors was determined as 1/2(Length×Width^2). Apoptotic cell death in tumor tissues was analyzed using TUNEL staining (In situ Cell Death Detection kit; Roche), and cells were stained with DAPI (4′,6-diamidino-2-phenylindole), as previously described (Kih et al., Biomaterials 180: 67-77, 2018). Apoptotic cells were visualized under a Nikon Eclipse Ti microscope (Nikon) and quantified as the number of TUNEL-positive cells per total number of cells using ImageJ software. After 21 days from injecting tumor cells, tumor tissues were excised from the experimental mice, and cryo-sections (3.5 μm) were fixed with 10% neutral buffered formalin and paraffin-embedded tissue blocks.
(§6) In addition, to investigate whether tumor growth inhibition by TTPN is induced by apoptosis-inducing activity on tumor cells, tumor tissues from the treated mice were analyzed. On the 15th day after the first injection, mice were euthanized, and apoptosis of tumor tissues was analyzed using terminal deoxynucleotidyl transferase dUTP nick end labeling (TUNEL) staining.

HepG2 tumor [15] = assay: TUNEL analysis of HepG2 tumor tissue; type: in vivo, mouse; conditions: 15th day after first injection
Description: as §5, with “After 21 days from injecting tumor cells, tumor tissues were excised from the experimental mice, and cryo-sections (3.5 μm) were fixed with 10% neutral buffered formalin and paraffin-embedded tissue blocks.” left out
as §6

[16] = within 21 days (Kih et al.); cited from earlier work
[17] = target: T3, DR4-Fc chimeric protein (R&D systems 347-DR-100) (UniProt O00220 24-239); assay: SPR, DR4-Fc captured on Protein A chip, 25° C., 1:1 Langmuir model
T3 construct: Bought (R&D systems 347-DR-100); Captured on a Protein A sensor chip; also called TRAIL R1; death receptor 4; Fc part of the bought chimera not given
Protocol: DR4 and DR5-fc chimeric proteins (R&D systems 347-DR-100, 631-T2-100) were immobilized on the surface of the Planar Protein A sensor chip (Reichert, 13206069) and the receptors were coated at a level of 300 to 500 resonance units. […] Each analyte was run at 50 μL/min using running and sample buffer (0.5 M Tris-HCl (pH 7.4), 150 mM NaCl, 0.005% Tween 20), and binding of the ligand to the receptor was performed and monitored in real time. For titration sensorgrams, a simple 1:1 Langmuir interaction model (A+B↔AB) was applied using the data analysis program Scrubber 2.0 (BioLogic Software, Australia, and KaleidaGraph Software, Australia) and CLAMP software.
The affinity KD was determined from the formula of KD=kd/ka.

Molecule: COc1cccc2c1C(=O)c1c(O)c3c(c(O)c1C2=O)C[C@@](O)(C(=O)CO)C[C@@H]3O[C@H]1C[C@H](N)[C@H](O)[C@H](C)O1 [free DOX, doxorubicin, reference compound]
cell death compared with controls (HT29 cells [1]): 36%
induction of early apoptosis (HT29 cells [2]): ineffective in inducing apoptosis
cleaved caspase-3 (and PARP) expression [3]: little change
increase in PARP relative to buffer-treated controls (defined as 1) (PARP): 811 fold
decrease in XIAP levels compared with buffer treatment (XIAP): 34 fold
DR5 expression levels over time (DR5 [4]): substantial increase in DR5 expression at 4 hours
decrease of tumor volumes (HT29 tumor [5]): no significant tumor-inhibition effect
TUNEL-positive tumor cells (HT29 tumor [6]): 0.07%
dose at which side effects can be exhibited [7]: greater than 1 mg/kg

ka (DR4): 8.68 (±7.12) · 10^2 M^−1 · S^−1
kd (DR4): 5.27 (±2.14) · 10^−5 s^−1
ka (DR5 [10]; 25° C.): 1.48 (±0.12) · 10^3 M^−1 · S^−1
kd (DR5 [10]; 25° C.): 3.87 (±1.13) · 10^−5 s^−1
Kd (DR5 [10]; KD=kd/ka): 25.4 nM
IC50 relative to TTPN (HepG2 cells [12]): 30 times
B1: monomeric TRAIL (mTRAIL) extracellular domain (ligand)
chain: MTSEETISTVQEKQQNISPLVRERGPQRVAAHITGTRGRSNTLSSPNSKNEKALGRKINSWESSRSGHSFLSNLHLRNGELVIHEKGFYYIYSQTYFRFQEEIKENTKNDKQMVQYIYKYTSYPDPILLMKSARNSCWSKDAEYGLYSIYQGGIFELKENDRIFVSVTNEHLIDMDHEASFFGAFLVG
notes: Expressed in E. coli from pET28a-mTRAIL and purified on Ni-NTA; a vector tag is not spelled out
IC50, cell viability of HepG2 cells (CCK-8, 24 hours) [8]: 405 nM
IC50, cell viability of HepG2 cells (CCK-8, 24 hours) [9]: 405 nM
stability in solution ([11]; 15 mg/mL in PBS buffer for 24 hours (FIG. 15)): precipitated and aggregated rapidly
amount in the soluble form, of the initial concentration ([11]; within 2 days, 10 mg/mL (FIG. 16)): 57%
surviving tumor cells (Annexin V/PI double negative) (HepG2 cells [13]; HepG2, 0.4 nM): 94.3%
surviving tumor cells (Annexin V/PI double negative) (HepG2 cells [13]; HepG2, 100 nM): 82.9%
concentration at which Annexin V-positive cells were detected (HepG2 cells [13]; HepG2, 24 hours (FIG. 20)): 25 nM
inhibition of tumor volume (HepG2 tumor [14]): 25.98%
TUNEL-positive tumor cells (HepG2 tumor [15]): 18.9%
fraction showing rapid aggregation [16]: ~50%
Kd [17]: 247 nM
koff [17]: 5.27e-05 s⁻¹
kon [17]: 868 M⁻¹ s⁻¹
